Results taken from PMC7335187, “Super-assembly of ER-phagy receptor Atg40 induces local ER remodeling at contacts with forming autophagosomal membranes” (Nature Communications, 2020).

Columns and labels:
Assay in all cases: ITC
[1] = target: human GABARAP (1-116), O95166; settings: chain shown with the change
[2] = target: T1, Atg8 (1-116) K26P, P38182; settings: chain shown with the change; Atg8 (1.8 mM)
T1 chain: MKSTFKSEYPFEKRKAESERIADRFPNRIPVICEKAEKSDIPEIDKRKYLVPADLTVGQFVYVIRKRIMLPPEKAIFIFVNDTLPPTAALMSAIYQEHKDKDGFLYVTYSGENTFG

[3] = target: T2, SEC62^355–376 peptide, Q99442; settings: chain shown with the change
T2 chain: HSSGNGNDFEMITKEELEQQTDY

[4] = target: T3, FAM134B^444–470 peptide, Q9H6L5; settings: chain shown with the change
T3 chain: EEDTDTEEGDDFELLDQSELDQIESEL

B1: FAM134B^444–470 peptide, Q9H6L5 F455A (peptide)
chain: GPEEDTDTEEGDDAELLDQSELDQIESELY
- Kd [1]: 3.55 µM

B2: SEC62^355–376 peptide, Q99442 E364A; E370A (peptide)
chain: GPHSSGNGNDFAMITKEALEQQTDY
- Kd [1]: 35.1 µM

B3: Atg40^237–252 peptide, Q99325 D243A; D247A (peptide)
chain: EFPNDYAFMEAILDET
- Kd [2]: 83.3 µM

B4: human GABARAP (1-116), O95166 R67A (protein)
chain: MKFVYKEEHPFEKRRSEGEKIRKKYPDRVPVIVEKAPKARIGDLDKKKYLVPSDLTVGQFYFLIRKAIHLRAEDALFFFVNNVIPPTSATMGQLYQEHHEEDFFLYIAYSDESVYG
- Kd [3]: 9.43 µM
- Kd [4]: 1880 nM
